Assay results as given in publication PMC8809517, “Cofactor-independent RNA editing by a synthetic S-type PPR protein”.
Changes are numbered by the printed parent chain.

How the values were obtained:
Assay in all cases: high-throughput RNA pulldown from lysate on Ni-NTA beads; HRP: 50 mM Tris pH 8, 150 mM NaCl, 1 mM beta-mercaptoethanol, 50 ug/ml BSA, 3 ug/ml yeast RNA, 0.5% heparin; ITC and FP: Tris pH 8, 200 mM KCl, 5% glycerol; MST: 50 mM Tris pH 8, 200 mM NaCl, 1 mM DTT, BSA, heparin, 0.05% Tween 20
Conditions in all cases: tags: N-terminal His-eGFP
[1] = biological target: T1, GFP-9S library array, motif 4 ND N98V;D124S (synthetic construct, N98V;D124S)
T1 chain: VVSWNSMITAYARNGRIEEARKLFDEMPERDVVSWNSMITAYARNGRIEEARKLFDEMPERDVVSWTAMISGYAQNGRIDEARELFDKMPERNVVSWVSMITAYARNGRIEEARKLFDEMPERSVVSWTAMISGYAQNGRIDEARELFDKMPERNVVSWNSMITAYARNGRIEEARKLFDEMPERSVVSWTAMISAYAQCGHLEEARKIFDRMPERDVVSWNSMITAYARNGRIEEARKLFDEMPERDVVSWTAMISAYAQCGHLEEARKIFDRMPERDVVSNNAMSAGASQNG

[2] = biological target: T2, GFP-9S library array, motif 4 ND N98D;D124Y (synthetic construct, N98D;D124Y)
T2 chain: T1 chain with V98D, S124Y

[3] = biological target: T3, GFP-9S library array, motif 4 ND N98C;D124Y (synthetic construct, N98C;D124Y)
T3 chain: T1 chain with V98C, S124Y

[4] = biological target: T4, GFP-9S library array, motif 4 ND N98H;D124Q (synthetic construct, N98H;D124Q)
T4 chain: T1 chain with V98H, S124Q

[5] = biological target: T5, GFP-9S library array, motif 4 ND N98P;D124N (synthetic construct, N98P;D124N)
T5 chain: T1 chain with V98P, S124N

AUUAGACGUGA (ssRNA) [Cy5-rpoA-G]
Kd ([1]; label: 5' Cy5): 50.4 nM
Kd ([2]; label: 5' Cy5): 246 nM
Kd ([3]; label: 5' Cy5): 72.3 nM
Kd ([4]; label: 5' Cy5): 60.8 nM
Kd ([5]; label: 5' Cy5): 164 nM

AUUAAACGUGA (ssRNA) [IR-rpoA-A]
Kd ([1]; label: 5' IRDye 800CW): 26.8 nM
Kd ([2]; label: 5' IRDye 800CW): 1180 nM
Kd ([3]; label: 5' IRDye 800CW): 217 nM
Kd ([4]; label: 5' IRDye 800CW): 82.6 nM
Kd ([5]; label: 5' IRDye 800CW): 151 nM

AUUAUACGUGA (ssRNA) [IR-rpoA-U]
Kd ([1]; label: 5' IRDye 800CW): 50.3 nM
Kd ([2]; label: 5' IRDye 800CW): 266 nM
Kd ([3]; label: 5' IRDye 800CW): 94.2 nM
Kd ([4]; label: 5' IRDye 800CW): 31.4 nM
Kd ([5]; label: 5' IRDye 800CW): 136 nM

AUUACACGUGA (ssRNA) [Cy5-rpoA]
Kd ([1]; label: 5' Cy5): 69.5 nM
Kd ([2]; label: 5' Cy5): 153 nM
Kd ([3]; label: 5' Cy5): 56.9 nM
Kd ([4]; label: 5' Cy5): 68.7 nM
Kd ([5]; label: 5' Cy5): 172 nM
